Measurements taken from patent US20250215097A1.

B1: m10A11 (chimera) (antibody, from another filing, V domains shown)
VH: EVQLVESGGRLVQPKGSLKLSCAASGFAFNTYALYWIRQAPGKGLEWVARIRSKSNNYATYYADSVKDRFTISRDDSQSMLYLQMNNLKTEDTAMYYCVRARFYYSDYGYAMDYWGQGTSVTVSS
VL: DIVMTQAAPSVPVTPGESVSISCRSSKSLLHSNGNTYLYWFLQRPGQSPQLLIYRMSNLASGVPDRFSGSGSGTAFTLRISRVEAEDVGVYYCMQHLEYPLTFGAGTKLELKR
B2: h10A11 (antibody, from another filing, V domains shown)
VH: EVQLVESGGALVKPGGSLRLSCAASGFTFSTYALYWVRQAPGKGLEWVGRIRSKSNNYATYYADSVKDRFTISRDDSKNTLYLQMNSLKTEDTAVYYCTRARFYYSDYGYAMDYWGQGTLVTVSS
VL: DIVMTQSPDSLAVSLGERATINCRSSKSLLHSNGNTYLYWYQQKPGQPPKLLIYRMSNLASGVPDRFSGSGSGTDFTLTISSLQAEDVAVYYCMQHLEYPLTFGQGTKLEIKR

Biological target: human CCR8 (human) (UniProt P51685)
Assay: cell-based or functional assay

human CCR8 (human), sequence (P51685 whole entry): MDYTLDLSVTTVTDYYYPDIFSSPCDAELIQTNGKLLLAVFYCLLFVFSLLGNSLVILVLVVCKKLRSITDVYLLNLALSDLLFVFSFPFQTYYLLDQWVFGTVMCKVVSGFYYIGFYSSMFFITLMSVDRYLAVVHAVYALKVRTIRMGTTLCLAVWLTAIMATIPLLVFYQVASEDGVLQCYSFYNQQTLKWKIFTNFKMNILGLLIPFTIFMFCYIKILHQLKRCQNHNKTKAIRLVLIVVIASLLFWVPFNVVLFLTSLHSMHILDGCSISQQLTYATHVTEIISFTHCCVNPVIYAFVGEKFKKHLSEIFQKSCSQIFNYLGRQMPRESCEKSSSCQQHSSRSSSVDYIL

Row | Binder | ADCC EC50 (nM), NK92-CD16A effectors, HEK293-hCCR8 targets, LDH release [nM] | ADCC EC50 (nM), PBMC FcγRIIIA158F/F effectors, HEK293-hCCR8 targets [nM] | ADCC EC50 (nM), PBMC FcγRIIIA158V/V effectors, HEK293-hCCR8 targets [nM] | ADCC half-maximal effective concentration (EC50), NK92-CD16A effectors, HEK293-hCCR8 targets [nM] | ADCC maximal lysis rate, NK92-CD16A effectors, HEK293-hCCR8 targets [%] | ADCC maximal lysis rate, PBMC FcγRIIIA158F/F effectors, HEK293-hCCR8 targets [%] | ADCC maximal lysis rate, PBMC FcγRIIIA158V/V effectors, HEK293-hCCR8 targets [%]
1 | B1 | 0.12 | 0.19 | 0.05 | 0.03 | 30 | 66 | 68
2 | B2 |  | 0.21 | 0.03 |  |  | 61 | 63
